Target: hypothetical protein ST2166 (putative isocitrate dehydrogenase) from Sulfolobus tokodaii strain 7 (Sulfolobus tokodaii strain 7)
Assay: crystal structure; hanging-drop crystals of ST2166 (8 mg/mL) in 13% PEG 10,000, 100 mM HEPES pH 7.5, 10°C; space group P21, two monomers in the asymmetric unit; apo form at 2.0 Å and crystal soaked with 25 mM NADP+ at 2.4 Å

stoichiometry N: 2
Substance: hypothetical protein ST2166 (putative isocitrate dehydrogenase) from Sulfolobus tokodaii strain 7 (enzyme)
